Results taken from patent US20200247894A1 (Regeneron, published 2020).

How the values were obtained:
[1] = target: T1, D1 domain of human IL-2Rγ extracellular domain expressed with a C-terminal myc-myc-hexahistidine tag (human); assay: SPR, mAb captured on anti-hFc, 37 C
T1 construct: also called human IL2Rγ domain 1
T1 chain: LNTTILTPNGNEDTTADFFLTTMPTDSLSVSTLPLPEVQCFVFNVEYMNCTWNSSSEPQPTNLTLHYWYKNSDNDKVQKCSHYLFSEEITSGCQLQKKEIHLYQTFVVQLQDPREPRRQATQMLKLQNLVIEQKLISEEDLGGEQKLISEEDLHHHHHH
Procedure: (§1) Equilibrium dissociation constants (KD values) for IL-2Rγ binding to purified anti-IL2Rγ monoclonal antibodies were determined using a Biacore 4000 instrument equipped with a real-time surface plasmon resonance biosensor. All binding studies were performed in 10 mM HEPES, 150 mM NaCl, 3 mM EDTA, and 0.05% v/v Surfactant Tween-20, pH 7.4 (HBS-ET) running buffer at 25° C. and 37° C. The Biacore sensor surface was first derivatized by amine coupling with a monoclonal mouse anti-human Fc antibody (GE, # BR-1008-39) to capture anti-IL2Rγ monoclonal antibodies.
(§2) The dissociation of monoclonal antibody bound IL2Rγ reagents were monitored for 8-10 minutes in HBS-ET running buffer. Kinetic association (kₐ) and dissociation (kd) rate constants were determined by fitting the real-time sensorgrams to a 1:1 binding model using Scrubber 2.0c curve fitting software. Binding dissociation equilibrium constants (KD) and dissociative half-lives (t_{1/2}) were calculated from the kinetic rate constants as: […]

[2] = target: T1, D1 domain of human IL-2Rγ extracellular …; assay: SPR, mAb captured on anti-hFc, 25 C
Procedure: as §1, §2

[3] = target: T2, human IL2Rγ (endogenously expressed on cells) (human, UniProt P31785 23-369); assay: cell-based or functional assay
T2 sequence (looked up): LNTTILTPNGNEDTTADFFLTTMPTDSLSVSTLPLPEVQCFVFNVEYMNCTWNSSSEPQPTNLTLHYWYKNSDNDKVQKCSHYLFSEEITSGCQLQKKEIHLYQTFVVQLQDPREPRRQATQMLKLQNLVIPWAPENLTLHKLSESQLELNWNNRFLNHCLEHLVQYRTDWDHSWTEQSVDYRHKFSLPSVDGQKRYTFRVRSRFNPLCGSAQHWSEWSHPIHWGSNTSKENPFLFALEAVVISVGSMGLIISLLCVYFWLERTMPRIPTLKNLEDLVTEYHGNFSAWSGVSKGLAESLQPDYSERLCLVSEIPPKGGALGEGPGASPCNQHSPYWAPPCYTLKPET

[4] = target: T3, mouse IL-2Rγ endogenously expressed on MC/9 cells (mouse, UniProt P34902 23-369); assay: flow cytometry, 10 ug/ml antibody, MC/9 cells (endogenous mouse IL-2Rg)
T3 construct: whole, on cells
T3 sequence (looked up): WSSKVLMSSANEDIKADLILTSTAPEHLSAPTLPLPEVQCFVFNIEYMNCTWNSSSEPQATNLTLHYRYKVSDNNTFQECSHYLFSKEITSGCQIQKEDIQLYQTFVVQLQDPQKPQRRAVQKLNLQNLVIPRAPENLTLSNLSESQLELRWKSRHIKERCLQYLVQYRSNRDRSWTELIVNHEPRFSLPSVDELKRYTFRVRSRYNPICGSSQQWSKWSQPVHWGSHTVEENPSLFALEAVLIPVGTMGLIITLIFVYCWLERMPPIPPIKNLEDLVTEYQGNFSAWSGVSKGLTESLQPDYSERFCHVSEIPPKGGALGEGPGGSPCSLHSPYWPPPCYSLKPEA
Procedure: (§3) For flow cytometry analyses, the cells were pre-incubated with mouse IgG at 100 μg/ml for 15 minutes at room temperature (RT) to block the binding of the antibodies to Fc receptors. […] Cells were washed, fixed using BD CytoFix™ (BD biosciences, #554655) and analyzed on an IQue® (Intellicyt®) Flow Cytometer or Accuri Flow cytometer (BD). […] The results were analyzed using ForeCyt® (IntelliCyt®) software to determine the geometric means of fluorescence (MFI) for viable cells. Binding ratios were calculated by normalizing the MFI of the test sample by the MFI of the unstained sample.

[5] = target: T4, human IL-2Rγ endogenously expressed on NK-92 and Jurkat cells (human, UniProt P31785 23-369); assay: flow cytometry, 10 ug/ml antibody, NK-92 cells (endogenous human IL-2Rg)
T4 construct: whole, on cells; on cells it stands with the other receptor subunits of the cell line; also called IL-2Rg; CD132
T4 sequence (looked up): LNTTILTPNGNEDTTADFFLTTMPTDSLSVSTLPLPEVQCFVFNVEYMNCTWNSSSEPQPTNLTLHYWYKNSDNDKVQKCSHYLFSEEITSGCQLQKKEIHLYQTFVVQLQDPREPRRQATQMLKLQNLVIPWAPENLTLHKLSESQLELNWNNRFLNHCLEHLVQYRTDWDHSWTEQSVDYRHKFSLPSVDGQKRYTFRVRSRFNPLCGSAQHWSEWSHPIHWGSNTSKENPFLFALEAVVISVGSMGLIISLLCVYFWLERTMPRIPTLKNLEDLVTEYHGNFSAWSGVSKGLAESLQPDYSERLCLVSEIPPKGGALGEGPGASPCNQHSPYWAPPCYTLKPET
Procedure: as §3

[6] = target: T5, Macaca fascicularis IL2Rγ extracellular domain expressed with a C-terminal myc-myc-hexahistidine tag (Macaca fascicularis); assay: SPR Biacore 4000, mAb captured by anti-hFc, 37C, dissociation in PBS-T pH 7.4
T5 construct: also called mfIL-2Rg-MMH; mfIL-2RG-MMH
T5 chain: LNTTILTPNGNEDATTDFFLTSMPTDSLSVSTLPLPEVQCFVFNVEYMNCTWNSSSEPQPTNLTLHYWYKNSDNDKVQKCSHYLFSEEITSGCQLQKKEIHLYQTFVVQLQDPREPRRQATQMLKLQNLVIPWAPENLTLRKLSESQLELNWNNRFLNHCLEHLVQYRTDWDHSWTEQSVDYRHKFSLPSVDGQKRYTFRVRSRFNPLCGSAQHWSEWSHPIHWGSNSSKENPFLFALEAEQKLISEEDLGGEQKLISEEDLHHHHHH
Procedure, shortened: (§4)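 Capture format uses immobilised mouse anti-human Fc on CM5 to hold each human IgG4 Fc antibody. Off-rates are measured over a 6 min PBS-T dissociation phase and fitted as kd with a 1:1 binding model.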

[7] = target: T6, Human IL2Rγ extracellular domain expressed with a C-terminal myc-myc-hexahistidine tag (human); assay: SPR Biacore 4000, mAb captured by anti-hFc, HBS-ET, 25C
T6 construct: also called hIL-2Rg-MMH; hIL-2RG-MMH
T6 chain: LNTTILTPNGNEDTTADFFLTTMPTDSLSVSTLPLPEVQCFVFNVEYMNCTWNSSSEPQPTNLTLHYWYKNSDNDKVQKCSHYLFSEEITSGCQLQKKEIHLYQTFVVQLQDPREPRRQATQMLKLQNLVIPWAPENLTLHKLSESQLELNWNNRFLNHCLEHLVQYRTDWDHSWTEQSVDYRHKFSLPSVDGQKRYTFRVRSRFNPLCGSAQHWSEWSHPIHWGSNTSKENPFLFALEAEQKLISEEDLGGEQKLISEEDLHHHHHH
Procedure, shortened: (§5)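 First, a mouse anti-human Fc antibody was amine-coupled to the chip; test mAbs were then captured and IL2Rγ reagents bound in HBS-ET, pH 7.4. Dissociation was tracked for 8-10 minutes before 1:1 fitting of the sensorgrams.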

[8] = target: T5, Macaca fascicularis IL2Rγ extracellular …; assay: as above
Procedure, shortened: as §5

[9] = target: T6, Human IL2Rγ extracellular domain …; assay: SPR Biacore 4000, mAb captured by anti-hFc, HBS-ET, 37C
Procedure, shortened: as §5

[10] = target: T5, Macaca fascicularis IL2Rγ extracellular …; assay: SPR Biacore 4000, mAb captured by anti-hFc, 37C, dissociation in PBS-T pH 6.0
Procedure, shortened: as §4

B1: H4H12857P (antibody, human IgG4 S228P, kappa, V domains shown)
VH: EVQLVESGGGVVRPGGSLRLSCAASGFTFDDFDMSWVRQGPGKGLEWVSGINWHGSSTGYADSVKGRFTISRDNAKNSLYLQMSSLRAEDTALYHCVRGGTIVGATTPLDYWGQGTLVTVSS
VL: DIQMTQSPSSLSASVGDRVTMTCRASRTISSYLSWYQQKSGKVPNLLIFGASSLQSGVPSRFSASGSGTDFTLIISSLQPEDFATYYCQQSYSSPLTFGGGTKVEIKR
notes: human IgG4; also called REGN9432
100 nM Ag Bound [1]: 1 RU
binding result [1]: no binding (tested: 100 nM)
100 nM Ag Bound [2]: 0 RU
IC50; IL-2 30 pM; NK92/hIL7R/STAT3-luc [3]: > 1e-07 M
IC50; IL-4 250 pM; Ramos.2G6.4C10/STAT3-luc [3]: 3.8e-08 M
IC50; IL-7 50 pM; NK92/hIL7R/STAT3-luc [3]: 1.6e-08 M
IC50; IL-9 20 pM; NK92/hIL7R/STAT3-luc [3]: > 1e-07 M
IC50; IL-15 60 pM; NK92/hIL7R/STAT3-luc [3]: > 1e-07 M
Max Inhibition (%); IL-2 30 pM; NK92/hIL7R/STAT3-luc [3]: 44%
Max Inhibition (%); IL-4 250 pM; Ramos.2G6.4C10/STAT3-luc [3]: 96%
Max Inhibition (%); IL-7 50 pM; NK92/hIL7R/STAT3-luc [3]: 94%
Max Inhibition (%); IL-9 20 pM; NK92/hIL7R/STAT3-luc [3]: 83%
Max Inhibition (%); IL-15 60 pM; NK92/hIL7R/STAT3-luc [3]: 78%

B2: H4H12857P (antibody, human IgG4 S228P, kappa, V domains shown)
VH: EVQLVESGGGVVRPGGSLRLSCAASGFTFDDFDMSWVRQGPGKGLEWVSGINWHGSSTGYADSVKGRFTISRDNAKNSLYLQMSSLRAEDTALYHCVRGGTIVGATTPLDYWGQGTLVTVSS
VL: DIQMTQSPSSLSASVGDRVTMTCRASRTISSYLSWYQQKSGKVPNLLIFGASSLQSGVPSRFSASGSGTDFTLIISSLQPEDFATYYCQQSYSSPLTFGGGTKVEIKR
notes: fully human anti-IL2Rg antibody, human IgG4; also called REGN9432
Binding Ratio (Sample over unstained MFIs) [4]: 1
Raw MFI [4]: 198 MFI

B3: H4H13545P2 (antibody, human IgG4 S228P, kappa, V domains shown)
VH: QVQLQQSGPGLVKPSQTLSLTCDISGDSVSSNIATWNWIRQSPSRGLEWLGRTYYRSKWYKDYAVSVKSRITINPDTSKNQFSLQVNSVTPEDTAVYYCARMTGPRYYFEYWGQGTLVTVSS
VL: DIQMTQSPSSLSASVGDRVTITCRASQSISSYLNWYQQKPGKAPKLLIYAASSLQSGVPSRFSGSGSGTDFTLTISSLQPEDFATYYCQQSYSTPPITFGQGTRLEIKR
notes: fully human anti-IL2Rg antibody, human IgG4
Binding Ratio (Sample over unstained MFIs) [5]: 3
Raw MFI [5]: 592 MFI

B4: H4H13541P (antibody, human IgG4 S228P, kappa, V domains shown)
VH: EVQLVESGGGVVRPGGSLRLSCAASGFIFDDYDMSWVRQPPGRGLEWVSGIDWFGGTRGYADSMKGRFTISRDNAKNSLYLQMNSLRVEDTAFYYCARGGAIVGAVTPFDYWGQGTLVTVSS
VL: DIQMTQSPSSLSASVGNRVTLSCRASQSINTYLSWYQQRPGKAPKLLIYAASSLQSGVPSRFSGSGAGTDFTLTISSLQPEDFATYYCQQSYSAPLTFGGGTKVEIKR
notes: as for B3
Binding Ratio (Sample over unstained MFIs) [5]: 37
Raw MFI [5]: 7050 MFI

B5: H4H13544P2 (antibody, human IgG4 S228P, kappa, V domains shown)
VH: QLQLQESGPGLVKPSETLSLTCTVSGGSISIKNYYWGWIRQPPGKGLEWIGSIYYSGTTYYNPSLKSRVTISVDTSKNQFSLKLSSVTAADTAVYHCARHGYSYGHGWFDPWGQGTLVTVSS
VL: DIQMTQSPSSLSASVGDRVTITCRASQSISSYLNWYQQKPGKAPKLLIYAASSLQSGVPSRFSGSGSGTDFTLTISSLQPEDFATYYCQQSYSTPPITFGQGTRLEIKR
notes: as for B3
Binding Ratio (Sample over unstained MFIs) [5]: 24
Raw MFI [5]: 4650 MFI

B6: H4H13538P (antibody, human IgG4 S228P, kappa, V domains shown)
VH: EVQLVESGGGLVQPGGSLGLSCAASGFTFSNYAMSWVRQAPGKGLEWVSAVSGGGGGTYYADSVKGRFTISRDNSKNTVLLQMNSLRAEDTAVYYCARGRTGGLDYWGPGTLVTVSS
VL: DVVMTQSPLSLPVIFGQPASISCRSSQSLVDSDGNTYLNWLQQRPGQSPRRLIYEVSNRDSGVPDRFSGSGSGTDFTLTISRVEAEDVGIYYCMQGTRWPPTFGGGTKVEIKR
notes: as for B3
Binding Ratio (Sample over unstained MFIs) [5]: 1
Raw MFI [5]: 235 MFI

B7: H4H12908P (antibody, human IgG4 S228P, kappa, V domains shown)
VH: EVQLVESGGRLVQPGGSLRLSCEASGFTFSNYGMTWVRQAPGKGLEWVSVISGSDNRKYYAESVKGRFTISRDNSKNTLYLQMNSLRAEDTAVYYCAKLGYSRSSKDFYYGMDVWGQGTTVTVSS
VL: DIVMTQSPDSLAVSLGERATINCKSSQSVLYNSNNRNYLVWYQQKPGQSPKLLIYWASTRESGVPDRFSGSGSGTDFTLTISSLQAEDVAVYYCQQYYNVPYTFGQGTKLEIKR
notes: anti-IL2Rγ monoclonal antibody expressed with human IgG4 Fc
100 nM Ag Bound (RU) [6]: 55 RU
koff [6]: 0.000514 s⁻¹
t1/2 [6]: 22 min
100 nM Ag Bound [7]: 19 RU
Kd [7]: 8.61 nM
koff [7]: 0.000285 s⁻¹
kon [7]: 33100 M⁻¹ s⁻¹
t1/2 [7]: 41 min
100 nM Ag Bound [8]: 14 RU
Kd [8]: 7.37 nM
koff [8]: 0.000237 s⁻¹
kon [8]: 32200 M⁻¹ s⁻¹
t1/2 [8]: 49 min
100 nM Ag Bound [9]: 16 RU
Kd [9]: 29.2 nM
koff [9]: 0.00141 s⁻¹
kon [9]: 48300 M⁻¹ s⁻¹
t1/2 [9]: 8 min
100 nM Ag Bound (RU) [10]: 52 RU
koff [10]: 0.00131 s⁻¹
t1/2 [10]: 9 min
